Measurements from patent US12410253B2, “Compositions comprising anti-NRP2 antibodies” (aTyr Pharma, Inc., priority 2019, dated 2025).
“Also recorded” adds a separate entry of the source.

T1: Human NRP2 (aa23-855) (Homo sapiens, UniProt O60462)
T1 construct: Human NRP2 (aa23-855)
T1 sequence (O60462 23-855 isoform O60462-3): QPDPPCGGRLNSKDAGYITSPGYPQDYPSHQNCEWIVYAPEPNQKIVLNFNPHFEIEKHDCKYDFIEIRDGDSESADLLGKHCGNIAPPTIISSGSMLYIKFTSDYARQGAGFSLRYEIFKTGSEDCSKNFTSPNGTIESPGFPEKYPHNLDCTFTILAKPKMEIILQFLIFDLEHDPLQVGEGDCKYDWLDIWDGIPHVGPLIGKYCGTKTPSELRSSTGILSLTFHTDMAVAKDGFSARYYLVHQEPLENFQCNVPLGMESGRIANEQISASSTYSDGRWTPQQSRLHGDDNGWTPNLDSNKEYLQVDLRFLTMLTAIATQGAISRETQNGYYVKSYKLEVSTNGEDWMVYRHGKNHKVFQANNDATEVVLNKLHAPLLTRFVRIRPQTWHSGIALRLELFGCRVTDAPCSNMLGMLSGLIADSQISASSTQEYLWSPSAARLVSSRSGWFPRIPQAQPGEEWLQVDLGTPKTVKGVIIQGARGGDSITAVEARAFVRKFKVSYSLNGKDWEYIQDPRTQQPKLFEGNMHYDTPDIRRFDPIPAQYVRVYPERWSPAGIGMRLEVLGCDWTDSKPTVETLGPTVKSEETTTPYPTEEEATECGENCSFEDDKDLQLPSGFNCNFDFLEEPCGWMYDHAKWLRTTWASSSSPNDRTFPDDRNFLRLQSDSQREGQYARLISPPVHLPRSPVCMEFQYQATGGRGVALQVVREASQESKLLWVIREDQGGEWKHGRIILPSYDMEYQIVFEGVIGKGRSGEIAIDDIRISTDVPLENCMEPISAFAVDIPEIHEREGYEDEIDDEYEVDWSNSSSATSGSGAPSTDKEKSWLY


Assays:
[1] = system: phospho-Akt levels in U251 glioblastoma cells; assay: Semaphorin 3F mediated inhibition of AKT phosphorylation in U251 cells; type: cell-based
Method: As shown schematically in FIG. 17, the treatment of cells with Sema3F should specifically block PI3K activity via NRP2 mediated interaction with plexin A1, thereby resulting in reduced phospho-Akt levels. To directly test the ability of the anti-NRP2 antibodies to block this effect, lysates were prepared following standard protocols (MesoScale Discovery, Phospho (Ser473)/Total Akt Assay Whole Cell Lysate Kit #K15100D). Serum starved and confluent U251 cells (Sigma, Cat. 09063001) were treated with 10 nM rapamycin (Sigma, Cat. 553211, 30 minutes), and blocking antibodies or controls were added (10 μg/mL, 30 minutes), followed by 25 nM Sema3F or serum free media for 1 hour in triplicate. Lysate protein concentrations were determined by BCA assay and samples were equalized to 0.4 mg/mL. Phospho and Total AKT were measured following the manufacturer's instructions and percent phosphorylation was calculated by dividing phosphorylated AKT relative units by total AKT relative units. Blocking of Sema3F for each antibody or control was determined by comparing percent phosphorylation of Sema3F treated cells to percent phosphorylation of non-Sema3F treated cells.

Human NRP2 (aa23-855) = target: T1, Human NRP2 (aa23-855); assay: SPR binding affinity of anti-NRP2 antibodies to human NRP2 antigen; conditions: KD = kd/ka, Langmuir (1:1) model
Method: Anti-NRP2 antibody binding and affinity measurements. […] SPR experiments were conducted on a Bio-Rad ProteOn XPR36 Protein Interaction Array instrument. Biotinylated anti-human antibody (ThermoFisher Cat #7103302100) was immobilized on ProteOn NLC sensor chips. Anti-NRP2 antibodies were subsequently flowed over and captured by the anti-human antibody. Human NRP2 antigen protein was flowed over the captured antibody at varying concentrations (150, 50, 16.67, 5.56, 1.85 nM). The sensor chip surface was regenerated between each analyte run to remove anti-NRP2 antibodies and NRP2 protein. Data was double referenced against a surface with no anti-NRP2 antibody captured (immobilized anti-human antibody only) and a buffer only blank. Affinity constants were derived by globally fitting sensograms to a Langmuir (1:1) interaction model in the ProteOn manager software. For each anti-NRP2 antibody, data from the multiple NRP2 concentrations was fit as a single data set with dissociation rate constant (kd), association rate constant (ka) and Rmax values as global parameters. The reported binding affinity is the equilibrium dissociation constant (KD) calculated from kd/ka. • Running buffer: 50 mM HEPES, 300 mM NaCl, 5 mM CaCl2), 0.005% Tween-20, pH 7.4 • Immobilized antibody: CaptureSelect Human Fab-kappa Kinetics Biotin Conjugate, ThermoFisher Cat #7103302100 • Antigen: Human NRP2 (aa23-855) with C-terminal Avi-, Myc- and His-tags • Regeneration buffer: 10 mM glycine pH 2.0

Row | Molecule | Kd (Human NRP2 (aa23-855)) [nM] | decrease in intracellular phospho-Akt levels ([1]; 25 nM Sema3F, 1 hour) | blocking of the Sema3F induced decrease in intracellular phospho-Akt levels ([1]; antibody 10 μg/mL, 25 nM Sema3F 1 hour)
1 | Sema3F: Semaphorin 3F, NRP2 ligand used to reduce phospho-Akt levels (protein) SFPTQDHLPATPRVRLSFKELKATGTAHFFNFLLNTTDYRILLKDEDHDRMYVGSKDYVLSLDLHDINREPLIIHWAASPQRIEECVLSGKDVNGECGNFVRLIQPWNRTHLYVCGTGAYNPMCTYVNRGRRAQATPWTQTQAVRGRGSRATDGALRPMPTAPRQDYIFYLEPERLESGKGKCPYDPKLDTASALINEELYAGVYIDFMGTDAAIFRTLGKQTAMRTDQYNSRWLNDPSFIHAELIPDSAERNDDKLYFFFRERSAEAPQSPAVYARIGRICLNDDGGHCCLVNKWSTFLKARLVCSVPGEDGIETHFDELQDVFVQQTQDVRNPVIYAVFTSSGSVFRGSAVCVYSMADIRMVFNGPFAHKEGPNYQWMPFSGKMPYPRPGTCPGGTFTPSMKSTKDYPDEVINFMRSHPLMYQAVYPLQRRPLVVRTGAPYRLTTIAVDQVDAADGRYEVLFLGTDRGTVQKVIVLPKDDQELEELMLEEVEVFKDPAPVKTMTISSKRQQLYVASAVGVTHLSLHRCQAYGAACADCCLARDPYCAWDGQACSRYTASSKRASRAQDVRHGNPIRQCRGFNSNANKNAVESVQYGVAGSAAFLECQPRSPQATVKWLFQRDPGDRRREIRAEDRFLRTEQGLLLRALQLSDRGLYSCTATENNFKHVVTRVQLHVLGRDAVHAALFPPLSMSAPPPPGAGPPTPPYQELAQLLAQPEVGLIHQYCQGYWRHVPPSPREAPGAPRSPEPQDQKKPRNRR |  | approximately 50% | 
2 | aNRP2-1v3: humanized, affinity matured anti-NRP2 antibody, target domain b2; VH SEQ ID NO: 43, VL SEQ ID NO: 44 (antibody, V domains shown, Variable heavy chain region; Light chain variable region) VH: QVQLVQSGAEVKKPGASVKVSCKASGYTFTSYWMHWVRQAPGQGLEWMGAIYPGNSDTSYNQQFKGRVTMTRDTSTSTVYMELSSLRSEDTAVYYCARRGGGYFDYWGQGTLVTVSS VL: DIQLTQSPSFLSASVGDRVTITCKASQNVGAAVAWYQQKPGKAPKLLIYSASNRYTGVPSRFSGSGSGTEFTLTISSLQPEDFATYYCQQYSSYPLLTFGGGTKVEIK | 17 |  | 
3 | aNRP2-2v4: humanized, affinity matured anti-NRP2 antibody, target domain c; VH SEQ ID NO: 45, VL SEQ ID NO: 46 (antibody, V domains shown, Variable heavy chain region; Light chain variable region) VH: QVQLVQSGAEVKKPGASVKVSCKASGYTFTSYWMHWVRQAPGQGLEWMGVIHPNSASTFYNERFKTRATMTVDRSSSTAYMELSSLRSEDTAVYYCSRPGTVRRSDYWGQGTTVTVSS VL: DVVMTQSPLSLPVTLGQPASISCRSSQNIVHSTGNTYLEWYQQRPGQSPRLLIYKVSNRFSGVPDRFSGSGSGTDFTLKISRVEAEDVGVYYCFQGSHVPWTFGGGTKVEIK | 2.7 |  | 

More lines, main results first:

Row | Kd (Human NRP2 (aa23-855)) [nM] | Molecule | decrease in intracellular phospho-Akt levels ([1]; 25 nM Sema3F, 1 hour) | blocking of the Sema3F induced decrease in intracellular phospho-Akt levels ([1]; antibody 10 μg/mL, 25 nM Sema3F 1 hour)
4 | 0.358 | aNRP2-10v13: humanized, affinity matured anti-NRP2 antibody, target domain b1; VH SEQ ID NO: 69, VL SEQ ID NO: 70 (antibody, V domains shown, Variable heavy chain region; Light chain variable region) VH: EVQLVQSGAEVKKPGATVKISCKVSGFNIKDYYVHWVQQAPGKGLEWMGRIDVHDDETKYAPKFQGRVTITADTSTDTAYMELSSLRSEDTAVYYCATPIYGAREAWFAYWGQGTLVTVSS VL: DIQMTQSPSSLSASVGDRVTITCTASSSVSSSYLHWYQQKPGKAPKLLIYRTSNLASGVPSRFSGSGSGTDFTLTISSLQPEDFATYYCHQYYRSPPTFGGGTKVEIK |  | 
5 | 0.2 | aNRP2-10v5: humanized, affinity matured anti-NRP2 antibody, target domain b1; VH SEQ ID NO: 47, VL SEQ ID NO: 48 (antibody, V domains shown, Variable heavy chain region; Light chain variable region) VH: EVQLVQSGAEVKKPGATVKISCKVSGFNIKDYYIHWVQQAPGKGLEWMGRIDVEDDETKYAPKFQGRVTITADTSTDTAYMELSSLRSEDTAVYYCATPIYGSREAWFAYWGQGTLVTVSS VL: DIQMTQSPSSLSASVGDRVTITCTASSSVSSSYLHWYQQKPGKAPKLLIYRTSNLASGVPSRFSGSGSGTDFTLTISSLQPEDFATYYCHQYYRSPPTFGGGTKVEIK |  | 
6 | 0.17 | aNRP2-14v10: humanized, affinity matured anti-NRP2 antibody, target domain a2, semaphorin blocking; VH SEQ ID NO: 55, VL SEQ ID NO: 56 (antibody, V domains shown, Variable heavy chain region; Light chain variable region) VH: QLQLVESGGGVVQPGRSLRLSCTVSGFSLTSYGVHWVRQAPGKGLEWVGLIWSGGSTDYSPAFISRFTISEDNSKSTVYLQMNSLRAEDTAVYFCARNSYSSGYYAMDYWGQGTTVTVSS VL: DIQLTQSPSFLSASVGDRVTITCKASQNVGTAVAWYQQKPGKAPKLLIYSASNRYTGVPSRFSGSGSGTEFTLTISSLQPEDFATYYCQQRSRYPPYTFGGGTKVEIK |  | blocked the reduction in phospho-Akt levels; also recorded: block semaphorin 3F mediated inhibition of AKT phosphorylation; also recorded: can be blocked
